Source: patent publication US6962971B2, “Chemokines and methods for inducing the differentiation of fibroblasts to myofibroblasts” (The Regents of the University of California, priority 2001, dated 2005)
“Also recorded” adds a separate entry of the source.

Experiments:
α-SMA [1] = assay: Immunostaining for α-SMA in fibroblast cultures and collagen gel sections; assay type: cell-based, chicken
Protocol: Plates of fibroblasts were treated with cCAF as described previously. After 4 days, the cells were rinsed with PBS, fixed in 4% paraformaldehyde, permeabilized with 0.15% Triton X-100 and incubated with PBS containing 0.1M glycine for 10 min. Cells were blocked for 30 min with 10% goat serum in PBS, incubated with mouse anti-α-SMA, to a final IgG concentration of 20 μg/ml, in 1% BSA/PBS for 1hr at room temperature (RT), and washed three times with 0.1% BSA/PBS for 10 min each. The cells were then incubated in goat anti-mouse FITC or sheep anti-mouse Texas Red (1:100) in 1% BSA/PBS for 1 hr at RT, washed three times for 10 min with 0.1% BSA in PBS and mounted with Vectashield. Collagen gels were rinsed with PBS, fixed in 4% paraformaldehyde for 2 hr, washed three times 30 min each with PBS, and incubated for an additional 30 min in PBS containing 0.1M glycine. This treatment was followed by incubation at 4° C. overnight in 15% sucrose and then incubated under the same conditions in 30% sucrose. After a brief rinse with PBS, the gels were frozen in OCT, sections prepared and collected on gelatin-coated slides, rinsed with PBS, fixed in 4% paraformaldehyde for 10 min, and then incubated again in PBS containing 0.1M glycine for 10 min. This was followed by blocking for 30 min with 10% goat serum in PBS, incubation in primary and secondary antibody as described above, and mounting with Vectashield.

α-SMA [2] = assay: Immunoblotting for α-SMA in fibroblast extracts; assay type: cell-based, chicken; conditions: 750 ng/ml; versus untreated or C-peptide treated cells
Protocol: Plates of fibroblasts were treated as described previously, with 750 ng/ml cCAF or 2.5 ng/ml TGFβ. To block TGFβ, or cCAF activity, anti-cCAF (3 μl) or anti-TGFβ (1 μl) antibody was pre-incubated in 1 ml media for 1 hr at room temperature before being added to cells. After 4 days of treatment, protein extracts were prepared in 1 ml 150 mM RIPA buffer containing protease inhibitors. Protein concentrations were determined using the DC protein assay kit and samples were adjusted to contain equal amounts of protein. SDS-PAGE was performed on 7.5% separating Doucet gels (Doucet and Trifaro, 1988). Protein transfer to nitrocellulose was performed using a wet-transfer apparatus (Bio-Rad) at 100V for 45 min. The membranes were blocked for 1 hr in 5% milk in TTBS and then incubated overnight at 4° C. in mouse anti-α-SMA, to a final IgG concentration of 5 μg/ml, in 1% milk in TTBS. The membranes were washed 3 times for 20 min each with TTBS, incubated in anti-mouse HRP at 1:10,000 in 1% milk for 1hr and washed as above, and the bands visualized using the ECL.

α-SMA [3] = assay: Immunostaining for α-SMA in granulation tissue of excision wounds; assay type: in vivo, chicken; conditions: 1 μg cCAF every other day; versus vehicle
Protocol: At the specified time points, chickens were euthanized with sodium pentobarbitol. The wounded wings were collected and fixed for 18 hrs in 4% paraformaldehyde and decalcified for 3 days in 5% formic acid, 2.5% formaldehyde at 4° C. The tissue was embedded in paraffin and sectioned. Sections were stained with Masson Trichrome to visualize interstitial collagen. Other sections were immunolabeled for α-SMA. Sections were deparaffinized with 3×15 min washes in Hemo-De and rehydrated in 5 min washes of ethanol (100%, 95%, 70%, 50%, 30%). After rinsing with PBS, sections were fixed in 2% paraformaldehyde 1 hr. General autofluoresence and non-specific staining were blocked by 30 min in 0.1M glycine in PBS, followed by 30 min in 1% Evans Blue in PBS to quench red blood cell autofluorescence. Sections were incubated with α-SMA antibody in 1% BSA in PBS (1:50) for 2 hr at room temperature. After 3×10 min washes in 0.1% BSA in PBS, the sections were incubated for 40 min with anti-mouse Alexa antibody in 1% BSA in PBS (1:200). They were then washed and mounted with Vectashield.

[4] = system: chicken CXC receptor 1 (CXCR1); assay: Chicken cCXCR1-mediated calcium release; assay type: cell-based; conditions: 400 ng
Protocol: NIH #373 cells overexpressing the chicken CXC receptor 1 (CXCR1) were exposed to the full-length cCAF molecule, the 15-amino N-terminal peptide of cCAF, or the 28-amino acid C-terminal peptide and calcium release was then measured.

B1: cCAF: CXC chemokine chicken Chemotactic and Angiogenic Factor, full-length, SEQ ID NO:2; purified or synthesized (protein)
chain: LSQGRTLVKMGNELRCQCISTHSKFIHPKSIQDVKLTPSGPHCKNVEIIATLKDGREVCLDPTAPWVQLIVKALMAKAQLNSDAPL
modifications: Gallusgallus
notes: purified or synthesized
For B1, the “α-SMA immunolabeling of sections of fibroblast-seeded collagen gels” value (α-SMA [1]; versus control gels) was “more cells with fibers staining for α-SMA than control gels”, the “α-SMA immunolabeling of cultured fibroblasts” value (α-SMA [1]; versus untreated control cells) was “more fibroblasts are stained for α-SMA; also recorded: many more cells showing intense staining for fiber bundles” and the “α-SMA levels by immunoblot” value (α-SMA [2]) was “much higher levels of α-SMA; also recorded: increased levels of α-SMA”. The “cells labeling for α-SMA in granulation tissue, day 3” value (α-SMA [3]) was “numerous cells labeling for α-SMA; also recorded: many more cells that label for α-SMA”, the “cells labeling for α-SMA in granulation tissue, day 5” value (α-SMA [3]) was “many more myofibroblasts than the control wounds; also recorded: many more cells staining for α-SMA” and the “cells labeling for α-SMA in granulation tissue, day 7” value (α-SMA [3]) was “continue to have more labeled cells than do control wounds”. The “time to calcium release” value [4] was ≤ 1 min and the calcium release ([4]; NIH #373 cells overexpressing chicken CXCR1) was “induced a rapid (within 1 min.) release of calcium”.
